# B1: OT-001661: constitutive CD40L control; amino acid SEQ ID NO. 6067 and nucleic acid SEQ ID NO. 6068 (protein)
# chain: MHMIETYNQTSPRSAATGLPISMKIFMYLLTVFLITQMIGSALFAVYLHRRLDKIEDERNLHEDFVFMKTIQRCNTGERSLSLLNCEEIKSQFEGFVKDIMLNKEETKKENSFEMQKGDQNPQIAAHVISEASSKTTSVLQWAEKGYYTMSNNLVTLENGKQLTVKRQGLYYIYAQVTFCSNREASSQAPFIASLCLKSPGRFERILLRAANTHSSAKPCGQQSIHLGGVFELQPGASVFVNVTDPSQVSHGTGFTSFGLLKL
# notes: constitutive CD40L control; 6068
# Assays:
# [1] = test system: CD40L constructs regulated by Carbonic anhydrase DDs in T cells; test: Acetazolamide dose response of CD40L expression in transduced T cells, FACS (MFI, % CD40L positive); assay type: cell-based, human; conditions: for CD40L MFI / Percentage CD40L positive cells: 24 hours; for CD40L MFI: FACS
# Procedure: (§1) CD40L constructs regulated by Carbonic anhydrase DDs were generated and cloned into lentiviral vectors. Purified T cells were thawed and cultured with aCD3 aCD28 Dynabeads (in the ratio of 3 beads to 1 T cell).
# The constructs were transduced in T cells the next day. […] 24 hours after the addition of ligand T cells were stained for CD40L expression and analyzed using FACS.
# [2] = test system: CA2 regulated CD40L in activated T cells; test: Regulation of CD40L in T cells by CA2, percent of cells expressing CD40L (surface expression); assay type: cell-based, human; conditions: All Cells, ligand N/A
# [3] = test system: CA2 regulated CD40L in activated T cells; test: as above; assay type: cell-based, human; conditions: ligand N/A
# Procedure: To test regulation, activated T cells were lentivirally transduced with CA2 regulated CD40L (OT-001990) and a control of CD40L (OT-001661). Two days later, cells were treated with vehicle or […] ligand for 24h as described in Table 14 after which they were analyzed for CD40L surface expression. In the table, “Acz” is Acetazolamide.
# [4] = test system: CD40L constructs regulated by Carbonic anhydrase DDs in T cells; test: Time course regulation of CD40L in transduced T cells, FACS (MFI, % CD40L positive); assay type: cell-based, human; conditions: constitutive CD40L
# Procedure: as §1
# A control of empty vector (EV) and constitutive CD40L (OT-001661; amino acid SEQ ID NO. 6067 and nucleic acid SEQ ID NO. 6068) was also evaluated. Cells were fixed at 2, 4, 6, 8, 24, and 48 hours and then T cells were stained for CD40L expression and analyzed using FACS. The results are shown as median fluorescence intensity in Table 12 and as percentage CD40L positive cells in Table 13.
# [5] = test system: CD40L in HEK293T cells; test: Soluble CD40L (shedding) in medium of transfected HEK293T cells, ELISA; assay type: cell-based, human; conditions: HEK293T cell culture medium, no ligand stated, Repeat 1
# [6] = test system: monocyte derived dendritic cells (DCs), Nalm6; test: IFNg and IL-12 in supernatant of DC + Nalm6 + CAR+ T cell co-culture, MSD; assay type: cell-based; conditions: DC + T cells + Nalm6, no ligand stated, supernatant 24 hours
# Procedure: To measure the effect of CD40L expression that is tuned by the biocircuits of the present disclosure in the context of CARs, T cells expressing any of the CA2 CD40L-CAR constructs described herein were co-cultured with monocyte derived dendritic cells (DCs).
# In vitro cultures were set up by adding 1×10^4 DCs into culture with 1×10^5 Nalm6 and 1×10^5 CAR+ T cells. […] Supernatants were collected 24 hours later and analyzed for IFNg and IL-12 by MSD assay. OT-001661 (SEQ ID NO. 6067; encoded by SEQ ID NO. 6068), that expressed CD40L payloads constitutively was used as control.
molecule,measurement,setting,value
CC(=O)Nc1nnc(S(N)(=O)=O)s1 [Acetazolamide],CD40L MFI,"[1]; CD4+ T cells with CA2 DD CD40L construct (OT-001990), Acetazolamide 0.01 μM",112
same,Percentage CD40L positive cells,"[1]; CD4+ T cells with CA2 DD regulated CD40L construct, Acetazolamide 0.01 μM",4.13%
same,Percentage CD40L positive cells,"[1]; CD4+ T cells with CA2 DD regulated CD40L construct, Acetazolamide 0.05 μM",5.44%
same,Percentage CD40L positive cells,"[1]; CD4+ T cells with CA2 DD regulated CD40L construct, Acetazolamide 0.2 μM",10.3%
same,Percentage CD40L positive cells,"[1]; CD4+ T cells with CA2 DD regulated CD40L construct, Acetazolamide 0.8 μM",45.6%
same,Percentage CD40L positive cells,"[1]; CD4+ T cells with CA2 DD regulated CD40L construct, Acetazolamide 3.1 μM",69.3%
same,Percentage CD40L positive cells,"[1]; CD4+ T cells with CA2 DD regulated CD40L construct, Acetazolamide 12.5 μM",90.3%
same,Percentage CD40L positive cells,"[1]; CD4+ T cells with CA2 DD regulated CD40L construct, Acetazolamide 50 μM",91.1%
same,CD40L MFI,"[1]; CD4+ T cells, Acetazolamide 0.2 μM",185
same,CD40L MFI,"[1]; CD4+ T cells, Acetazolamide 0.8 μM",481
same,CD40L MFI,"[1]; CD4+ T cells, Acetazolamide 3.1 μM",840
same,CD40L MFI,"[1]; CD4+ T cells, Acetazolamide 12.5 μM",2783
same,CD40L MFI,"[1]; CD4+ T cells, Acetazolamide 50 μM",3728
same,amount of Acetazolamide required to achieve stabilization of CD40L,[1]; CD4+ and CD8+ T cells,within the level of the ligand that can be achieved in humans
same,CD40L MFI,"[1]; CD8+ T cells with CA2 DD CD40L construct (OT-001990), Acetazolamide 0.01 μM",105
same,Percentage CD40L positive cells,"[1]; CD8+ T cells with CA2 DD regulated CD40L construct, Acetazolamide 0.01 μM",0.59%
same,Percentage CD40L positive cells,"[1]; CD8+ T cells with CA2 DD regulated CD40L construct, Acetazolamide 0.05 μM",0.44%
same,Percentage CD40L positive cells,"[1]; CD8+ T cells with CA2 DD regulated CD40L construct, Acetazolamide 0.2 μM",1.48%
same,Percentage CD40L positive cells,"[1]; CD8+ T cells with CA2 DD regulated CD40L construct, Acetazolamide 0.8 μM",25.2%
same,Percentage CD40L positive cells,"[1]; CD8+ T cells with CA2 DD regulated CD40L construct, Acetazolamide 3.1 μM",41.2%
same,Percentage CD40L positive cells,"[1]; CD8+ T cells with CA2 DD regulated CD40L construct, Acetazolamide 12.5 μM",77.2%
same,Percentage CD40L positive cells,"[1]; CD8+ T cells with CA2 DD regulated CD40L construct, Acetazolamide 50 μM",80.7%
same,CD40L MFI,"[1]; CD8+ T cells, Acetazolamide 0.05 μM",104
same,CD40L MFI,"[1]; CD8+ T cells, Acetazolamide 0.2 μM",136
same,CD40L MFI,"[1]; CD8+ T cells, Acetazolamide 0.8 μM",307
same,CD40L MFI,"[1]; CD8+ T cells, Acetazolamide 3.1 μM",380
same,CD40L MFI,"[1]; CD8+ T cells, Acetazolamide 12.5 μM",1599
same,CD40L MFI,"[1]; CD8+ T cells, Acetazolamide 50 μM",2184
B1,CD40L positive,[2],98%
same,MFI,[3]; All Cells,20451
same,CD40L positive,[3]; CD4+ T cells,98.7%
same,MFI,[3]; CD4+ T cells,24489
same,CD40L positive,[3]; CD8+ T cells,97.8%
same,MFI,[3]; CD8+ T cells,14352
same,CD40L MFI,"[4]; CD4+ T cells, 2 hours",4042
same,Percentage CD40L positive cells,"[4]; CD4+ T cells, 2 hours",72.8%
same,CD40L MFI,"[4]; CD4+ T cells, 4 hours",4651
same,Percentage CD40L positive cells,"[4]; CD4+ T cells, 4 hours",77%
same,CD40L MFI,"[4]; CD4+ T cells, 6 hours",3156
same,Percentage CD40L positive cells,"[4]; CD4+ T cells, 6 hours",67.2%
same,CD40L MFI,"[4]; CD4+ T cells, 24 hours",9491
same,Percentage CD40L positive cells,"[4]; CD4+ T cells, 24 hours",93.3%
same,CD40L MFI,"[4]; CD4+ T cells, 48 hours",5639
same,Percentage CD40L positive cells,"[4]; CD4+ T cells, 48 hours",88.5%
same,CD40L MFI,"[4]; CD8+ T cells, 2 hours",2212
same,Percentage CD40L positive cells,"[4]; CD8+ T cells, 2 hours",56.9%
same,CD40L MFI,"[4]; CD8+ T cells, 4 hours",2994
same,Percentage CD40L positive cells,"[4]; CD8+ T cells, 4 hours",63.2%
same,CD40L MFI,"[4]; CD8+ T cells, 6 hours",1773
same,Percentage CD40L positive cells,"[4]; CD8+ T cells, 6 hours",48.5%
same,CD40L MFI,"[4]; CD8+ T cells, 24 hours",3563
same,Percentage CD40L positive cells,"[4]; CD8+ T cells, 24 hours",71.2%
same,CD40L MFI,"[4]; CD8+ T cells, 48 hours",2313
same,Percentage CD40L positive cells,"[4]; CD8+ T cells, 48 hours",71.1%
same,sCD40L,[5],2900 pg/mL
same,IFNg,[6],1579.21 pg/mL
same,IL12,[6],58.88 pg/mL
